Data from publication PMC3793875, “Fluorescence correlation spectroscopy, combined with bimolecular fluorescence complementation, reveals the effects of β-arrestin complexes and endocytic targeting on the membrane mobility of neuropeptide Y receptors” (Biochimica et Biophysica Acta, 2012).

How the values were obtained:
[1] = target: T1, Y1 receptor-Gc (rat Y1 receptor fused at the C terminus to sfGFP fragment 155-238) (rat, UniProt P21555 1-382); assay: radioligand binding; as a1 but on membranes of HEK293T BiFC cell lines co-expressing β-arrestin2-Gn (Y1 A2, Y16A A2); 16 pM [125I]PYY; conditions: one partner purified
T1 construct: neuropeptide Y receptor type 1, rat; cDNA transferred to the pCMV FLAG vector for transfection; also called Y1-Gc; receptor of the Y1 A1, Y1 A2 and Y1 A2Δ cell lines; source: HEK293T, stably transfected into β-arrestin-Gn clonal lines; live or fixed cells, or membranes
T1 sequence (looked up): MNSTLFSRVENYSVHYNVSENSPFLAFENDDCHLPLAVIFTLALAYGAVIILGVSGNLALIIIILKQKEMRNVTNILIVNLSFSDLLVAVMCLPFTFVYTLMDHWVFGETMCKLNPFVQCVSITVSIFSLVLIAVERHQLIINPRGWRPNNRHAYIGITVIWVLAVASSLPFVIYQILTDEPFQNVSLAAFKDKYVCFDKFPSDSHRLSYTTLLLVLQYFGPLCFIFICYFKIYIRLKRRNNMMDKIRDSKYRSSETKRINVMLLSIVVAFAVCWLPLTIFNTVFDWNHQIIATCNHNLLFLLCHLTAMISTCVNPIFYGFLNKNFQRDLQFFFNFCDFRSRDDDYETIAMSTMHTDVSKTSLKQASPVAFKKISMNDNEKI

Y1 6A receptor-Gc [2] = target: T2, Y1 6A receptor-Gc (rat, UniProt P21555 1-382, S352A | T353A | T356A | S359A | T361A | S362A); assay: as above; conditions: one partner purified
T2 construct: neuropeptide Y receptor type 1, rat, with six C tail serine/threonine residues changed to alanine; also called Y16A-Gc; receptor of the Y16A A1 and Y16A A2 cell lines; source: HEK293 cells stably co-expressing β-arrestin-Gn; live cells or membranes
T2 sequence (looked up): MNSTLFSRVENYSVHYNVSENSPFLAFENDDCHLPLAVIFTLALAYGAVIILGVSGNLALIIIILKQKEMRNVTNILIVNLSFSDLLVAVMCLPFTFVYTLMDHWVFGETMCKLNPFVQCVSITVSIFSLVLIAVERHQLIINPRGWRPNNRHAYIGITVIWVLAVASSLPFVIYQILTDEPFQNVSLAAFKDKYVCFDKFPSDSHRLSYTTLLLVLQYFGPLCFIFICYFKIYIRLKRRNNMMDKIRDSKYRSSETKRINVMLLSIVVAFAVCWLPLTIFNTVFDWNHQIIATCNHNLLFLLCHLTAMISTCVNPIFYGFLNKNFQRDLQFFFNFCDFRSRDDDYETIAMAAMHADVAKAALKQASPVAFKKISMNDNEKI

Y1 6A receptor-sfGFP = target: T3, Y1 6A receptor-sfGFP (rat, UniProt P21555 1-382, S352A | T353A | T356A | S359A | T361A | S362A); assay: radioligand binding; competition with [125I]PYY (16 pM for Y1, 10 pM for Y2 receptors) on membranes of tetracycline-induced 293TR Y receptor-sfGFP cell lines; 90 min at 21 °C; 25 mM HEPES, 2.5 mM CaCl2, 1.0 mM MgCl2, 0.1% BSA, 0.1 mg/ml bacitracin, pH 7.4; IC50 converted to pKi by the Cheng-Prusoff equation; conditions: one partner purified
T3 construct: neuropeptide Y receptor type 1, rat, with six C tail serine/threonine residues changed to alanine; also called Y16AsfGFP; source: membranes or live cells; not shown: sfGFP via linker LRPLE, C-terminal, kept
T3 sequence (looked up): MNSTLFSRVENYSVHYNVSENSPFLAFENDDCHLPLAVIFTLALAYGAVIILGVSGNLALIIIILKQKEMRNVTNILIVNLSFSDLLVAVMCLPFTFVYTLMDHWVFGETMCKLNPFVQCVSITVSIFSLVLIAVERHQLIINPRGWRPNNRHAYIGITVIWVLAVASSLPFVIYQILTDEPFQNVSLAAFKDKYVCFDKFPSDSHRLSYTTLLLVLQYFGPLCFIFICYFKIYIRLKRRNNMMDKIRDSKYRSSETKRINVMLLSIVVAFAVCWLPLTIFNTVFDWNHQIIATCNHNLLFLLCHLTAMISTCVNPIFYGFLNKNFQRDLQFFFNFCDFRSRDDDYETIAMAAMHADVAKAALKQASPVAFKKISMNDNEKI

[3] = target: T4, Y1 receptor-sfGFP (rat NPY Y1 receptor, N-terminal FLAG, C-terminal superfolder GFP) (rat, UniProt P21555 1-382); assay: as above; conditions: one partner purified
T4 construct: neuropeptide Y receptor type 1, rat; sfGFP here is enhanced GFP with S30R, Y39N, M153T and V163A (wild type GFP numbering), lacking the start Met; linker LRPLE between receptor C terminus and sfGFP; also called Y1sfGFP; Y1-sfGFP; source: membranes or live cells; not shown: sfGFP via linker LRPLE, C-terminal, kept
T4 sequence (looked up): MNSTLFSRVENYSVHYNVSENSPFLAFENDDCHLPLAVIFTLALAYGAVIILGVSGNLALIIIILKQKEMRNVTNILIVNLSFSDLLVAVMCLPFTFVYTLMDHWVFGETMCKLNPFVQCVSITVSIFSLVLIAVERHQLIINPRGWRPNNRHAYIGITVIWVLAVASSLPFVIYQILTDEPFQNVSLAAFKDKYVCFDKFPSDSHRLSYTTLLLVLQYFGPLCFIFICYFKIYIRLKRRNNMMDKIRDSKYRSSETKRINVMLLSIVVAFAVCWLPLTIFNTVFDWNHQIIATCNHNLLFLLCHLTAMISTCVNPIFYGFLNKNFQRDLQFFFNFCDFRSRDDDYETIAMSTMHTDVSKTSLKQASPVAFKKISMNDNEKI

[4] = target: T1, Y1 receptor-Gc (rat Y1 receptor fused …); assay: radioligand binding; as a1 but on membranes of HEK293T BiFC cell lines co-expressing β-arrestin1-Gn (Y1 A1, Y16A A1); 16 pM [125I]PYY; conditions: one partner purified
Y1 6A receptor-Gc [5] = target: T2, Y1 6A receptor-Gc; assay: as above; conditions: one partner purified
[6] = target: T1, Y1 receptor-Gc (rat Y1 receptor fused …); assay: radioligand binding; as a1 but on membranes of the HEK293T BiFC cell line co-expressing β-arrestin2 ΔLIEFD-Gn (Y1 A2Δ); 16 pM [125I]PYY; conditions: one partner purified
[7] = target: T1, Y1 receptor-Gc (rat Y1 receptor fused …); assay: split reporter (BiFC, NanoBiT); sfGFP BiFC in stable HEK293 cells in 96 well plates, NPY 0.1 nM-3 μM for 60 min at 37 °C, fixed, confocal platereader images quantified by granularity analysis (average granule intensity/cell); conditions: partners not purified

B1: peptide YY (PYY), unlabelled (peptide)
peptide: not shown
notes: neither species nor supplier is stated; surmised
pKi [1]: 9.54
pKi (Y1 6A receptor-Gc [2]): 9.48
pKi (Y1 6A receptor-sfGFP): 9.22
pKi [3]: 9.5
pKi [4]: 9.45
pKi (Y1 6A receptor-Gc [5]): 9.3
pKi [6]: 9.44

B2: β-arrestin1-Gn (human β-arrestin1 fused at the C terminus to sfGFP fragment 2-172) (natural protein, UniProt P49407 1-418, looked up)
chain: MGDKGTRVFKKASPNGKLTVYLGKRDFVDHIDLVDPVDGVVLVDPEYLKERRVYVTLTCAFRYGREDLDVLGLTFRKDLFVANVQSFPPAPEDKKPLTRLQERLIKKLGEHAYPFTFEIPPNLPCSVTLQPGPEDTGKACGVDYEVKAFCAENLEEKIHKRNSVRLVIRKVQYAPERPGPQPTAETTRQFLMSDKPLHLEASLDKEIYYHGEPISVNVHVTNNTNKTVKKIKISVRQYADICLFNTAQYKCPVAMEEADDTVAPSSTFCKVYTLTPFLANNREKRGLALDGKLKHEDTNLASSTLLREGANREILGIIVSYKVKVKLVVSRGGLLGDLASSDVAVELPFTLMHPKPKEEPPHREVPENETPVDTNLIELDTNDDDIVFEDFARQRLKGMKDDKEEEEDGTGSPQLNNR
notes: β-arrestin1, human, full length with the stop codon removed; The keyword list gives Gn as sfGFP 2-173, the methods as 2-172; also called A1; not shown: Gn (sfGFP fragment 2-172) via linker QRPLE, C-terminal, kept
pEC50 of NPY in stimulating the BiFC response (β-arrestin recruitment) [7]: 8.3
